{
  "source": "paper PMC11433124",
  "biological_target": "hRTL (Chondrilla australiensis tetramer lectin) (Chondrilla australiensis)",
  "assay": "SEC + other: SDS-PAGE; gel permeation chromatography on Shodex KW 402.5-4F (HPLC, 0.33 mL/min) in 50 mM sodium bicarbonate in saline, 60 kDa; SDS-PAGE under non-reducing conditions after 3 min or 20 min heating at 80 °C, 66 kDa and 18 kDa; subunit mass 15,521.11 Da by MALDI-TOF-MS",
  "data": [
    {"substance": "hRTL (Chondrilla australiensis tetramer lectin) (natural protein)", "values": [
      {"measurement": "stoichiometry N", "value": 4}
    ]}
  ]
}
